Target: T1, recombinant human ErbB2/Fc chimera (human, UniProt P04626 23-652)
T1 construct: bought from R&D Systems; also called rhErbB2-Fc; rhErb2-Fc; Fc part of the bought chimera not given; not described
Assay: ELISA, coated ErbB2/Fc

| Binder | binding result |
| --- | --- |
| 47E5 (VHH, C-term myc-His6 tag) VHH: EVQLVESGGGLVQAGGSLRLSCAASASIFGFDSMGWYRQAPGNERILVAIISNGGTTSYRDSVKGRFTIARDNAKNTVSLQMNSLKPEDTAVYYCNLDRRSYNGRQYWGQGTQVTVSS | binds |
| 15C9 (VHH, C-term myc-His6 tag) VHH: EVQLVESGGGLVQAGGSLKLSCVNSGIPSTLRAMAWYRQAPGRQRDWVATSSNTGGTTYDDSVKGRFTISRDNAKNTVYLQMNSLKPEDTGVYYCRDVNRDLWGQGTQVTVSS | binds |
| 30D10 (VHH, C-term myc-His6 tag) VHH: EVQLVESGGGLVQAGGSLTLSCTASETTVRIRTMAWYRQPPGNQREWVATIGSNGFATYPDSVKGRFTISRDNAKNTVYLQMNSLKPEDTAVYYCRDINRDIWGQGSQVTVSS | binds |
| 17D5 (VHH, C-term myc-His6 tag) VHH: EVQLVESGGGLVQPGGSLRLSCAASGIIGTIRTMAWYRQAPGKQRDWVASIGTRGAPVYADSVNGRFTISRDGATNTVFLQMNNLKPEDTAVYYCRDVNRDYWGQGTQVTVSS | binds |
| 15E10 (VHH, C-term myc-His6 tag) VHH: EVQLVESGGGLVQAGGSLKLSCVASGITFFRYTMGWYRQAPGKERELVAEISSADEPSFADAVKGRFTISRDNAKNTVVLQMNGLKPEDTAVYYCKGSWSYPGLTYWGKGTLVTVSS | binds |
| 13C4 (VHH, C-term myc-His6 tag) VHH: EVQLVESGGGLVQAGGSLRLSCVVSGIPSSIRAMAWYRQAPGRQRDWVATIYSPSGSAVYADSVKGRFTISSDNAKSTIYLQMNSLKPDDTAVYYCRDVNREYWGQGTQVTVSS | binds |
| 15B11 (VHH, C-term myc-His6 tag) VHH: EVQLVESGGGSVQAGGSLRLSCVVSGIPSSIRAMAWYRQAPGRQRDWVATIYSRSGGAVYADSVKGRFTISSDNAKNTIYLQMNSLKPDDTAVYYCRDVNRDYWGQGTQVTVSS | binds |
| 13D4 (VHH, C-term myc-His6 tag) VHH: EVQLVESGGGLVQAGGSLRLSCVVSGIPSSIRAMAWYRQAPGRQRDWVATIYSPSGSAVYADSVKGRFTISSDNAKSTIYLQMNSLEPDDTAVYYCRDVNREYWGQGTQVTVSS | binds |
| 15G5 (VHH, C-term myc-His6 tag) VHH: EVQLVESGGGLVQAGGSLRLSCVVSGIPSTIRAMAWYRQAPGRQRDWVATIYSPSGSAVYADSVKGRFTISSDNAKKTIYLQMNSLKPDDTAVYYCRDVNREYWGQGTQVTVSS | binds |
| 15B2 (VHH, C-term myc-His6 tag) VHH: EVQLVESGGGLVQAGGSLRLSCVVSGIPSSIRAMAWYRQAPGRQRDWVATIYSPSGSAVYADSVKGRFTISSDNAKSTIYLQMNSLKPDDTAVYYCRDVNRDYWGQGTQVTVSS | binds |
| 14D4 (VHH, C-term myc-His6 tag) VHH: EVQLVESGGGLVQAGDSLRLSCAASGRALDTYVMGWFRQAPGDGREFVAHIFRSGITSYASSVKGRFTISRDNAKNTVYLQMASLKPEDTAAYYCAARPSDTTWSESSASWGQGTQVTVSS | binds |
| 17A10 (VHH, C-term myc-His6 tag) VHH: EVQLVESGGGLVQAGGSLRLSCVASGIPSIRAIAWYRQAPGKQRDWVATSGTGYGATYDDSVKGRFTLSRDNAKNTVYLQMNSLKPEDTAVYYCRDVNRDYWGQGTQVTVSS | binds |
| 13D10 (VHH, C-term myc-His6 tag) VHH: EVQLVESGGGLVQPGGSLRLSCAASSVITLDSNAIGWFRQAPGKEREEVSCIASSDGSTYYAESVKGRFTISKDYTRNTVYLQVNSLKPEDTAVYHCATDANPNCGLNVWNSWGQGTQVTVSS | binds |
| 17B5 (VHH, C-term myc-His6 tag) VHH: EVQLVESGGGLVQTGGSLRLSCAASGSTFRTDMMGWYRQAPGKQREFVASITKFGSTNYADSVKGRFTISNDNAKDTVYLQMNSLKSEDTAVYYCRNFNRDLWGQGTQVTVSS | binds |
| 15H4 (VHH, C-term myc-His6 tag) VHH: EVQLVESGGGLVQAGGSLTLSCAPSESTVSFNTVAWYRQAPGEQREWVATISRQGMSTYPDSVKGRFTISRDNAKNTVYLQMNNLKPEDTAVYYCRDINHDIWGRGSQVTVSS | binds |
| 15D2 (VHH, C-term myc-His6 tag) VHH: EVQLVESGGGLVQAGGSLRLSCVVSGVFGPIRAMAWYRQAPGKQRDWVATIGSSGHPVYTDSVKGRFTFSKDGAKNTVYLQMNSLKPEDTAVYYCRDINRDYWGQGTQVTVSS | binds |
| 46G1 (VHH, C-term myc-His6 tag) VHH: EVQLVESGGGLVQAGGSLRLSCAASGRTFSDDAMGWFRQAPGKERECVASLYLNGDYPYYADSVKGRFTISRDNAKNAVILQMNNLKTEDTAVYYCAAKPGWVARDPSQYNYWGQGTQVTVSS | binds |

| Binder | binding result |
| --- | --- |
| 46E4 (VHH, C-term myc-His6 tag) VHH: EVQLVESGGGLVQAGGSLRLSCAASGRAFKDDAVGWFRQAPGKERECVASMYLDGDYPYYADSVKGRFTISRDNAKNAVILQMNNLKTEDTAVYYCAAKPGWVARDPSEYNYWGQGTQVTVSS | binds |
| 15G10 (VHH, C-term myc-His6 tag) VHH: EVQLVESGGGLVQAGGSLSLSCAASGRFFSTRVMAWYRQTPGKQREFVASMRGSGSTNYADSARGRFAISRDNAKNTVYLQMNSLKPEDTAVYYCRDINEDQWGQGTQVTVSS | binds |
| 17A8 (VHH, C-term myc-His6 tag) VHH: EVQLVESGGGLVQAGGSLSLSCAASGRFFSTRVMAWYRQTPGKQREFVASMRGSGSTNYADSVRGRFAISRDNAKNMVYLQMNTLKPEDTAVYYCRDINEDQWGQGTQVTVSS | binds |
| 17H10 (VHH, C-term myc-His6 tag) VHH: EVQLVESGGGLVQAGGSLSLSCSASGRFFSTRVMAWYRQTPGNQREFVATIHSSGSTIYADSVRGRFAISRDNAKNTVYLQMRSLKPEDTAVYYCRDINADQWGQGTQVTVSS | binds |
| 15A2 (VHH, C-term myc-His6 tag) VHH: EVQLVESGGGLAQAGGSLSLSCAASGRFFSTRVMAWYRQTPGKQREFVASMRGSGSTNYADSARGRFAISRDNAKNTVYLQMNSLKPEDTAVYYCRDINEDQWGQGTQVTVSS | binds |
| 27A3 (VHH, C-term myc-His6 tag) VHH: EVQLVESGGGLVQAGGSLSLSCVASGRFFSTRVMAWYRQTPGKQREFVASMRGSGSTNYADSVRGRFAISRDNAKNTVYLQMNTLKPEDTAVYYCRDINEDQWGQGTQVTVSS | binds |
| 17A5 (VHH, C-term myc-His6 tag) VHH: EVQLVESGGGLVQPGGSLRLSCAASGFTFDDYSMSWVRQATGKGLEWVSGISWNGGSTNYADSVKGRFTISRDNVKNTLYLQMNSLKSEDTAVYYCAKDLGNSGRGPYTNWGQGTQVTVSS | binds |
| 17B7 (VHH, C-term myc-His6 tag) VHH: EVQLVESGGGLVQAGGSLRLSCAASGIISSFRTMAWYRQAPGKQRDWVATIGSDGLANYADSVKGRFTISRDNAKKTVYLQMNSLKPEDTAVYFCRDINRDYWGQGTQVTVSS | binds |
| 15B6 (VHH, C-term myc-His6 tag) VHH: EVQLVESGGGLVQPGGSLRLSCAASGIIGSFRTMAWYRQAPGNQRDWVATIGSAGLASYADSVRGRFTLSRDNAKKTVYLQMNSLKPEDTAIYYCRDINGDYWGQGTQVTVSS | binds |
| 27F2 (VHH, C-term myc-His6 tag) VHH: EVQLVESGGGLVQAGGSLRLSCAASGIISSFRTLAWYRQAPGKQRDWVATISSAGGTAYADAVKGRFTISISRDNVEYTVDLQMDSLKPEDTAVYYCRDINGDYWGQGTQVTVSS | binds |
| 27E7 (VHH, C-term myc-His6 tag) VHH: EVQLVESGGGLVQAGGSLRLSCAASGITFRRYDMGWYRQFPGKERELVATILSEGDTNYVDPVKGRFTISRDNAKNTVYLQMNDLKPEDTAVYYCNGVWRAIGRTYWGQGTQVTVSS | binds |
| 15C8 (VHH, C-term myc-His6 tag) VHH: EVQLVESGGGLVQAGGSLRLSCAASGIAFRIRTMAWYRQAPGKQRDWVATSDSGGTTLYADSVKGRFTVSRDNAENTVYLQMNSLKPEDTAVYYCRDVNRDYWGQGTQVTVSS | binds |
| 27B5 (VHH, C-term myc-His6 tag) VHH: EVQLVESGGGLVQAGGSLRLPCAASGIAFRIRTMAWYRQAPGKQRDWVATSDSGGTTLYADSVKGRFTVSRDNAENTVYLQMNSLKPEDTAVYYCRDVNRDYWGQGTQVTVSS | binds |
| 13B12 (VHH, C-term myc-His6 tag) VHH: EVQLVESGGGLVQAGGSLRLSCAASGIAFRIRTMAWYRQAPGKQRDWVATIGSDGTTIYADSVKGRFTLSRHNAENTVYLQMNSLKPEDTAVYYCRDVNRDYWGQGTQVTVSS | binds |
| 27C7 (VHH, C-term myc-His6 tag) VHH: EVQLVESGGGLVQAGGSLRLSCAASGIAFRIRTMAWYRQAPGKQRDWVATSDSGGTTLYADSVKGRFTVSRDNADNTVYLQMNSLKPEDTAVYYCRDVNRDYWGQGTQVTVSS | binds |
| 17C6 (VHH, C-term myc-His6 tag) VHH: EVQLVESGGGLVQAGGSLTLSCAASGSTSSLDIMAWYRQAPEKQRELVASVSGGGNSDYASSVKGRFTISGDTAKSTLYLQMNSLKPEDTAMYYCYGRDYYYMPFWGQGTQVTVSS | binds |
| 13C9 (VHH, C-term myc-His6 tag) VHH: EVQLVESGGGLVQAGGSLRLSCVASGIPSIHAMAWYRQAPGKQRDWGATTYSRGGTTYNDSAKGRFTISRDNAKKTVYLQMNSLKPEDTAVYYCRDVNRDYWGQGTQVTVSS | binds |

— patent US20150232562A1 (Ablynx, published 2015)
